Data as given in patent EP1007090B1 (Biogen Idec Inc., dated 2009).
Where two headings read alike, the source gives them in different places.

What was measured:
B7.1/Ig fusion protein [1] = molecular target: T1, B7.1/Ig fusion protein (human, UniProt P33681 35-242, limits assumed); experiment: Scatchard analysis, binding to B7-Ig coated plates
T1 construct: Secreted by CHO cells; also called B7-Ig; 125I-B7.1Ig; not shown: human immunoglobulin CH2 and CH3
T1 sequence (looked up): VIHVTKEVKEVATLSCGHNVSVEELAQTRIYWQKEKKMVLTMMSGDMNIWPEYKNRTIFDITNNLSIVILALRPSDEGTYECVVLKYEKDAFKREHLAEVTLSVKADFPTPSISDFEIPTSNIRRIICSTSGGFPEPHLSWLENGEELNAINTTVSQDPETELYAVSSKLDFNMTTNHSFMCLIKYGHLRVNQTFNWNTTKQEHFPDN

B7.1/Ig fusion protein [2] = molecular target: T1, B7.1/Ig fusion protein; experiment: Scatchard analysis, binding to B7-Ig coated plates; remark: listed apart in the source

B1: monkey monoclonal antibody 7B6 (antibody, V domains shown)
VH: EVQLVESGGGLVQPGGSLRVSCAVSGFTFSDHYMYWFRQAPGKGPEWVGFIRNKPNGGTTEYAASVKDRFTISRDDSKSIAYLQMSSLKIEDTAVYYCTTSYISHCRGGVCYGGYFEFWGQGALVTVSS
VL: EVVMTQSPLSLPITPGEPASISCRSSQSLKHSNGDTFLSWYQQKPGQPPRLLIYKVSNRDSGVPDRFSGSGAGTDFTLKISAVEAEDVGVYFCGQGTRTPPTFGGGTKVEIK
B7.1/Ig fusion protein [1]
  Kd: ~10.7 nM
B7.1/Ig fusion protein [2]
  Kd: ~10.7 nM
